Measured values reported in patent US11945858B2, “Antibodies and antibody fragments against HNAV1.7 channel and their use in pain and cancer indications” (NATIONAL RESEARCH COUNCIL OF CANADA, priority 2018, dated 2024).
“Also recorded” adds a separate entry of the source.

Key:
[1] = system: OD1-evoked Nav1.7-mediated spontaneous pain behaviours; assay type: in vivo, mouse; conditions: 100 μg, injected 60 minutes prior to OD1; 20 min after the injection
FC5DIE3IR [2] = molecular target: T1, FC5DIE3IR (Homo sapiens, UniProt Q15858); experiment: Evaluation of apparent affinity of purified mAbs in ELISA; assay type: binding; conditions: purified mAb, OD 405 nm
T1 construct: The supernatant was collected and loaded on a 5 ml MabSelect™ SuRe™ column; made in house; host or cells: CHO-3E7 (transient, pTT5 vector), purified from supernatant
Procedure: Screening. Hybridoma supernatants were screened by ELISA to detect specific binders. To this end, 96-well half-area plates (Costar #3690) were coated with 25 μl of FC5DIE3IR or FC5-VHH or FC5-hFc-1X0 at 5 μg/ml in PBS and incubated overnight at 4° C. Microplates were washed 3 times with PBS, blocked with PBS-BSA 1%, and 25 μl of hybridoma supernatants were added and incubated at 37° C., 5% CO2 for 2 hours. Plates were washed 4 times with PBS-Tween 20 0.05% and incubated for one hour at 37° C., 5% CO2 with 25 μl of secondary antibody alkaline phosphatase conjugated F(ab′)2 goat anti-mouse IgG Fc-gamma specific (Jackson Immunoresearch #115-056-071) diluted 1/3000 in blocking buffer. After 4 washes with PBS-Tween 20 0.05%, 25 μl of a 1 mg/ml pNPP substrate solution was added and further incubated for one hour at 37° C. OD405 nm measurements were done using a microplate reader (Spectramax 340 PC, Molecular Devices).
Evaluation of apparent affinity in ELISA. Purified antibodies were assessed for their binding activity by ELISA in a dose-dependent binding curve. […] The data were analyzed with GraphPad Prism software using one-site specific binding-with Hill slope non-linear regression curve fit model to determine Bmax (maximum specific binding) and Kdapp (concentration needed to achieve a half-maximum binding at equilibrium) for each mAb tested. […]

FC5DIE3IR [3] = molecular target: T1, FC5DIE3IR; experiment: Hydrogen-Deuterium Exchange Mass Spectrometry (HDX-MS); assay type: binding; conditions: labelling 1, 10 and 60 min
VHH FC5 = experiment: Surface Plasmon Resonance of mAbs, FC5 control; assay type: binding; conditions: SPR; 25 °C
Procedure: Surface Plasmon Resonance of mAbs. FC5 and FC5DIE3IR proteins were SEC purified using a Superdex 75 column (GE Healthcare) connected to an AKTAPurifier (GE Healthcare) in HBS-EP+ running buffer (10 mM HEPES, pH 7.4, containing 150 mM NaCl, 3 mM EDTA and 0.05% P20) at a flow rate of 1 ml/min. Monomeric eluted peaks were used to flow over Fc-capture 3A8 mAb surfaces. To prepare the 3A8 mAb surfaces, approximately 6000 RUs of anti-mouse IgG (GE Healthcare) was first immobilized on CM5 Series S sensor chips (GE Healthcare) at pH 5.0, using standard amine coupling methods previously reported (Hussack et al., 2011) and according to the manufacturer's instructions (GE Healthcare). HBS-EP running buffer used for SPR experiments. The mAb 3A8 was captured on the anti-mouse IgG surface using 10 μg/ml of mAb, 30 sec contact time and flow rate of 10 μl/min. IMAC-purified DI-D VHH was passed through a Superdex 75 (GE Healthcare) column for SEC purification in HBS-EP buffer (10 mM HEPES, pH 7.4, containing 150 mM NaCl, 3 mM EDTA and 0.005% P20), connected to an AKTAPurifier (GE Healthcare) at a flow rate of 1 ml/min. Test binding experiments of FC5 control and FC5DIE3IR involved flowing 1 μM concentrations of SEC-pure material over the mAb surface at a flow rate of 30 μl/min for 5 min. Surfaces could be regenerated using 10 mM glycine, pH 1.7, with a 120 sec pulse at 20 μl/min. All SPR experiments were evaluated with Biacore T200 Software v 3.0. For kinetic analysis, single cycle kinetic analysis was used by flowing a range of FC5DIE3IR concentrations (320 nM-20 nM) at a flow rate of 30 μl/min, with 600 sec contact time and 1200 sec dissociation. Regeneration conditions were the same as above. Data were fit to a 1:1 binding model and analyzed using the Biacore T200 Software v3.0.
Surfaces were regenerated by washing with running buffer (HBS-EP). Data were analyzed with BIAevaluation 4.1 software as described (Hussack et al., 2011) and affinities determined using the steady state binding model.
Surface Plasmon Resonance (SPR) for monoclonal antibodies.

[4] = system: CFA-induced thermal hyperalgesia; experiment: Hargreaves Model of Hyperalgesia in rats; assay type: in vivo, rat
Outline: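 Rats aged 4-6 weeks (180-220 g) received 50 μl of complete Freund's adjuvant, an emulsion of heat-killed M. tuberculosis in oil:saline 2:1, into the right hind paw to produce inflammatory pain. Baseline paw withdrawal latency was recorded 48 h later, and test antibodies were then given by intraplantar injection.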

VHH FC5, sequence (as listed by the source): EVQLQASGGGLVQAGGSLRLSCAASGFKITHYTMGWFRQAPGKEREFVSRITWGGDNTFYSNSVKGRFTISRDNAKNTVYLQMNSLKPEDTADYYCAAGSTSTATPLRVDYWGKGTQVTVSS

B1: 3A8: anti-hNav1.7 mouse monoclonal antibody, IgG2a, k; heavy chain SEQ ID NO: 12, light chain SEQ ID NO: 18 (antibody, V domains shown)
VH: QVQLQQPGAELVKPGASVKLSCKASGYTFTNYWMHWVKQRPGQGLEWIGEINPSNGRANYNEKFKSKATLTVDKSSSTAYMQLSSLTSEDSAVYYCARSPYGYYDYWGQGTTLTVSSAKTTAPSVYPLAP
VL: DVLMTQTPLSLPVSLGDQASISCRSSQSLLHSNGNTYFHWYLQKPGQSPKLLIYKVSNRFFGVPDRFSGSGSGTDFTLKISRVEAEDLGVYFCSQITHVPLTFGAGTKLELKRADAAPTVSIFPPSS
modifications: Heavy chain of the 3A8 antibody without leader sequence; Light chain of the 3A8 antibody without leader sequence
B1 was tested, and the “Time spent in pain behaviors (saline plus OD1 = 100%)” value [1] was 73.76%±5.38, the “Bmax (maximum specific binding)” value (FC5DIE3IR [2]) was 3.2 and the “Stabilization of FC5DIE3IR in response to mAb binding (residues, differential HDX-MS)” value (FC5DIE3IR [3]) was “Asn121-Tyr134”. The “Binding to FC5 control (comment, in words)” value (VHH FC5) was “did not bind FC5; also recorded: No binding”, the “Percentage of effect after injection (on left paw withdrawal)” value (“Percentage of effect after injection” for short) ([4]; 50 μg intraplantar, 0 h) was 0% and the Latency paw withdrawal ([4]; 50 μg intraplantar, 1 h) was 6.08 ± 0.70 s. For the same molecule, the “Percentage of effect after injection” value ([4]; 50 μg intraplantar, 1 h) was 18.00%, the Latency paw withdrawal ([4]; 50 μg intraplantar, 2 h) was 7.38 ± 0.67 s and the “Percentage of effect after injection” value ([4]; 50 μg intraplantar, 2 h) was 24.09%. The Latency paw withdrawal ([4]; 50 μg intraplantar, 4 h) was 6.79 ± 0.50 s, the “Percentage of effect after injection” value ([4]; 50 μg intraplantar, 4 h) was 22.40% and the “Maximum effect (% Effect)” value ([4]; 50 μg intraplantar, reached 2 hours after injection) was 24.09±3.69%. For the same molecule, the “Percentage of effect after injection” value ([4]; 100 μg intraplantar, 0 h) was 0%, the Latency paw withdrawal ([4]; 100 μg intraplantar, 1 h) was 9.56 ± 0.70 s and the “Percentage of effect after injection” value ([4]; 100 μg intraplantar, 1 h) was 33.96%. The Latency paw withdrawal ([4]; 100 μg intraplantar, 2 h) was 10.58 ± 0.90 s, the “Percentage of effect after injection” value ([4]; 100 μg intraplantar, 2 h) was 40.55% and the Latency paw withdrawal ([4]; 100 μg intraplantar, 4 h) was 10.28 ± 1.20 s. The “Percentage of effect after injection” value ([4]; 100 μg intraplantar, 4 h) was 40.18%, the “Maximum percentage of the effect (% Effect; % MPE)” value ([4]; 100 μg intraplantar, time of maximum (1, 2 or 4 h)) was 40.55±2.20% and the “Duration of the reversal of hyperalgesia” value ([4]; 30 mg/kg intravenous) was “up to 24 h”. For the same molecule, the “Reversal of CFA-induced hyperalgesia (in words)” value ([4]; 30 mg/kg intravenous) was “able to reverse CFA-induced hyperalgesia”, the “Percentage of the maximum possible effect (% MPE)” value ([4]; 30 mg/kg intravenous (tail vein), 4 h) was 26.60±3.26% and the “Latency paw withdrawal time” value ([4]; 3A8 alone 75 μg intraplantar (FIG. 18)) was 10.59 ± 0.87 s. For the same molecule, the “Reversal of hyperalgesia (% MPE)” value ([4]; 3A8 alone 75 μg intraplantar, 4 h) was 35.35%±4.44 and the Latency paw withdrawal ([4]; intraplantar injection, 4 hours after administration (FIG. 10)) was 8.50 ± 0.94 s.
